According to publication PMC5758897 (Nucleic Acids Research, 2017):
Positions count from the first letter of the chain named. Where no end group is shown, it is not given here.

Experiments:
[1] = biological target: T1, YEATS domain of Yaf9 (WT, aa 8–171) (Saccharomyces cerevisiae, UniProt P53930); assay: 1H,15N HSQC NMR titration, Yaf9 YEATS WT; assay type: binding; details: free acetyllysine (NMR) vs H3K27ac peptide
T1 sequence (P53930 8-171): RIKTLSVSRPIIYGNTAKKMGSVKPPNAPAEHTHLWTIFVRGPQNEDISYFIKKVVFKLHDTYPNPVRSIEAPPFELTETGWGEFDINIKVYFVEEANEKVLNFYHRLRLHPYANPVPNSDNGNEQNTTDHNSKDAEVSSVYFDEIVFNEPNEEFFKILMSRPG

[2] = biological target: YEATS domain of Yaf9 (aa 8–171), wild type (S. cerevisiae) (UniProt P53930); assay: other fluorescence titration
[3] = biological target: T2, G83E mutant of Taf14-YEATS (aa 1–137) (yeast, UniProt P35189 1-137, G83E); assay: other fluorescence titration
T2 sequence (looked up): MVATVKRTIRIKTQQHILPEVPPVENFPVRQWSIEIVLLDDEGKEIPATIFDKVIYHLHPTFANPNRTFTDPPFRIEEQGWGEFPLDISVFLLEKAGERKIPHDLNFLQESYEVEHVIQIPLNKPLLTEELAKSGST

[4] = biological target: T3, YEATS domain of Taf14 (aa 1–137), wild type (yeast, UniProt P35189 1-137); assay: other fluorescence titration
T3 sequence (looked up): T2 sequence (looked up) with E83G

[5] = biological target: T4, D104R mutant of Taf14-YEATS (aa 1–137) (yeast, UniProt P35189 1-137, D104R); assay: other fluorescence titration
T4 sequence (looked up): T2 sequence (looked up) with E83G, D104R

[6] = biological target: T5, AF9 YEATS domain (aa 1–138), wild type (human, UniProt P42568 1-138); assay: other fluorescence titration
T5 sequence (looked up): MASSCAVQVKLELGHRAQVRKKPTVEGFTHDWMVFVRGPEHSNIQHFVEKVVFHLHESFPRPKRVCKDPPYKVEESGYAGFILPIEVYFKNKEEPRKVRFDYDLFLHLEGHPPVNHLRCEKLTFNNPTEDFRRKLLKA

[7] = biological target: T6, E91G mutant of Yaf9-YEATS (aa 8–171) (S. cerevisiae, UniProt P53930 8-171, E91G); assay: other fluorescence titration
T6 sequence (looked up): T1 sequence (P53930 8-171) with E84G

Question: How did the “binding of free acetyllysine weaker” value [1] turn out when `CC(=O)NCCCC[C@H](N)C(=O)O` [Kac, acetyllysine] was run?
Answer: over 200 fold

Question: With “histone H3K27ac peptide (aa 21–31 of H3) (from UniProt P68431 22-32)” as the molecule, how does the Kd [2] read?
Answer: 10 µM

Question: With QTARK(Ac)STGG (peptide, UniProt P68431 6-14, looked up, also: biotinylated, site not given here) [histone H3K9ac peptide (aa 5–13 of H3)] as the molecule, how does the “fold decrease in binding against WT Taf14-YEATS” value [3] read?
Answer: ~2 fold

Question: Does QTARK(Ac)STGG (peptide, UniProt P68431 6-14, looked up, also: biotinylated, site not given here) [histone H3K9ac peptide (aa 5–13 of H3)] bind [4]?
Answer: binds

Question: Does QTARK(Ac)STGG (peptide, UniProt P68431 6-14, looked up, also: biotinylated, site not given here) [histone H3K9ac peptide (aa 5–13 of H3)] bind [5]?
Answer: binds

Question: Does QTARK(Ac)STGG (peptide, UniProt P68431 6-14, looked up, also: biotinylated, site not given here) [histone H3K9ac peptide (aa 5–13 of H3)] bind [6]?
Answer: binds

Question: What about the “fold increase in binding against WT Yaf9-YEATS” value [7] of the same molecule?
Answer: ~1.5 fold
